# Source: patent publication US20260035426
# Sequence of recombinant human MMP9 (chain, as listed by the source): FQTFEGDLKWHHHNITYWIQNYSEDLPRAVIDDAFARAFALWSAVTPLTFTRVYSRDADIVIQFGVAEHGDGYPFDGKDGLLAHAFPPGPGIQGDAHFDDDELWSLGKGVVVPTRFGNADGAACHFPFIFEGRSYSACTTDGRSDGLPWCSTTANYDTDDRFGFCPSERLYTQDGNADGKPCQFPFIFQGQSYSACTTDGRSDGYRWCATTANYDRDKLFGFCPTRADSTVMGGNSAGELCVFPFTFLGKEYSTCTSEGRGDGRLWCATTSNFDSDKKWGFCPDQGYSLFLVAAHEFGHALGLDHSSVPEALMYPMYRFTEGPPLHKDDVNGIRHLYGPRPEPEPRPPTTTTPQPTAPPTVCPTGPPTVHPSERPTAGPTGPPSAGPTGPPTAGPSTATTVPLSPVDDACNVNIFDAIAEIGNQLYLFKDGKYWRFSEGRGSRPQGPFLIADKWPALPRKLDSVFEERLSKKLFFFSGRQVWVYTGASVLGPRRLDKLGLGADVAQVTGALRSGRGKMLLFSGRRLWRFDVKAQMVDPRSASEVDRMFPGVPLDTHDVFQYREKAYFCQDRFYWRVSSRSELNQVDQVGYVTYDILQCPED
# Sequence of SB1902-C2 (chain, as listed by the source, chain 1 of 2): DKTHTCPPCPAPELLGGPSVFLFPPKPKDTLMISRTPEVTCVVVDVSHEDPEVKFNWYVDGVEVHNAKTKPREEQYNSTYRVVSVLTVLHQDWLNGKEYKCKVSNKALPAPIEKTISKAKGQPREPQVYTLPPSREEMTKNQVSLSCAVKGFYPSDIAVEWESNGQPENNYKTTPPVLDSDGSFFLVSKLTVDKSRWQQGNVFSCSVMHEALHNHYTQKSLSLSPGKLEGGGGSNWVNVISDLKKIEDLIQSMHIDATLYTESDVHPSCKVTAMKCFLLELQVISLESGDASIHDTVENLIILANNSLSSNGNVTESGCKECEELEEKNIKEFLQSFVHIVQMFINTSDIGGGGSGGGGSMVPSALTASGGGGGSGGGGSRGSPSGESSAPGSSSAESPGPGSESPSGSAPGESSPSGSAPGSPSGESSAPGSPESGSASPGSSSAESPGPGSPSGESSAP
# Sequence of SB1902-C2 (chain, as listed by the source, chain 2 of 2): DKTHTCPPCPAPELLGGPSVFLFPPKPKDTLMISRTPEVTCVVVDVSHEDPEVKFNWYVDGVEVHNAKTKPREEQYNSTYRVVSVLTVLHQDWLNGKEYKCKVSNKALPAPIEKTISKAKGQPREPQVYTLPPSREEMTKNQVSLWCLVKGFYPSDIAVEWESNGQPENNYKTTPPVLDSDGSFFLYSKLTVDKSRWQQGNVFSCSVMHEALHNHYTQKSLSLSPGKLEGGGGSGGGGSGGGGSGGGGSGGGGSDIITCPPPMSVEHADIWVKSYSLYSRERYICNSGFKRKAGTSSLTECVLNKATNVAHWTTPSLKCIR
# Sequence of SB1902-C5 (chain, as listed by the source, chain 1 of 2): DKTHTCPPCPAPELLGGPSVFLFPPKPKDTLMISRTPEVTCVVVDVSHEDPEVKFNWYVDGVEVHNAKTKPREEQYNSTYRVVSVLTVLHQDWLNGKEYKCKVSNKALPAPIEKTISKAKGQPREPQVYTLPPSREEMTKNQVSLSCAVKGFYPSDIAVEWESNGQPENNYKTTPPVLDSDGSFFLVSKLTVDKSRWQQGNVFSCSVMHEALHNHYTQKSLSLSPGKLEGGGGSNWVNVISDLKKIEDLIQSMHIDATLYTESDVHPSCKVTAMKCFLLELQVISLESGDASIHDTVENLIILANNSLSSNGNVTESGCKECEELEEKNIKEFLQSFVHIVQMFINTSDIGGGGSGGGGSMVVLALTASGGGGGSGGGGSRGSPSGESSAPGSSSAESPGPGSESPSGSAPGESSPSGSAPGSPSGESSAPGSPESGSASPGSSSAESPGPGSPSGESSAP
# Sequence of SB1902-C5 (chain, as listed by the source, chain 2 of 2): as the sequence (chain, as listed by the source, chain 2 of 2) above
# Sequence of SB1902-C4 (chain, as listed by the source, chain 1 of 2): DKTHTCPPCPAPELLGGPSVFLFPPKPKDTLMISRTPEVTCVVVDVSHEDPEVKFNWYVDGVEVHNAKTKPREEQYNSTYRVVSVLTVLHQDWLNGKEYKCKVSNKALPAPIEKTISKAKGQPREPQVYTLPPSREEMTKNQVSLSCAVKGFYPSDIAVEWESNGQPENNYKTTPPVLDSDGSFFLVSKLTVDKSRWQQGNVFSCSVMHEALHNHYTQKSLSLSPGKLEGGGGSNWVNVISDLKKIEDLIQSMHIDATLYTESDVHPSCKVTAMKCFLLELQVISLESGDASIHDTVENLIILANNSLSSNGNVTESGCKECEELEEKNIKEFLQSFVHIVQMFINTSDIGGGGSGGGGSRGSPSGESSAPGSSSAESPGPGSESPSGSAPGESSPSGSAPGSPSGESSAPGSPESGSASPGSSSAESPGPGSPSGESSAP
# Sequence of SB1902-C4 (chain, as listed by the source, chain 2 of 2): as the sequence (chain, as listed by the source, chain 2 of 2) above
substance,measurement,setting,value
recombinant human MMP9,in vitro protease digestion (data not shown),CM10,"The other cleavable moieties (such as CM2, CM5-CM10) was also cleavable in vitro by both MMP2 and MMP9 (data not shown)"
same,in vitro protease digestion (data not shown),CM6,"The other cleavable moieties (such as CM2, CM5-CM10) was also cleavable in vitro by both MMP2 and MMP9 (data not shown)"
same,in vitro protease digestion (data not shown),CM2,"The other cleavable moieties (such as CM2, CM5-CM10) was also cleavable in vitro by both MMP2 and MMP9 (data not shown)"
same,in vitro protease digestion (data not shown),CM9,"The other cleavable moieties (such as CM2, CM5-CM10) was also cleavable in vitro by both MMP2 and MMP9 (data not shown)"
same,in vitro protease digestion (data not shown),CM8,"The other cleavable moieties (such as CM2, CM5-CM10) was also cleavable in vitro by both MMP2 and MMP9 (data not shown)"
same,"in vitro protease digestion, polyacrylamide gel",SB1902-C2,"The mutated substrate CM1 was cleavable in vitro by both MMP2 and MMP9 enzymes, with an enzyme dose-dependent manner"
same,"in vitro protease digestion, polyacrylamide gel",SB1902-C5,"The mutated substrate CM4 was cleavable in vitro by both MMP2 and MMP9 enzymes, with an enzyme dose-dependent manner"
same,in vitro protease digestion (data not shown),CM7,"The other cleavable moieties (such as CM2, CM5-CM10) was also cleavable in vitro by both MMP2 and MMP9 (data not shown)"
same,"in vitro protease digestion, polyacrylamide gel",SB1902-C4,the non-cleavable G4S linker in SB1902-C4 was resistant to both MMP2 and MMP9 enzyme digestion
same,in vitro protease digestion (data not shown),CM5,"The other cleavable moieties (such as CM2, CM5-CM10) was also cleavable in vitro by both MMP2 and MMP9 (data not shown)"
